Reference: US20220259278A1 (PROGEN, published 2022)
Each block holds one binder with its values, some of them ahead of it.

Legend:
human CD154 = molecular target: T1, human CD154 (human, UniProt P29965 113-261, limits assumed); assay: BLI (Octet K2), CD154 amine-coupled to AR2G sensor, antibody in solution; average
T1 construct: Coupled to amine reactive (AR2G) biosensors at 5 ug/ml; also called hCD154; CD40L
T1 sequence (looked up): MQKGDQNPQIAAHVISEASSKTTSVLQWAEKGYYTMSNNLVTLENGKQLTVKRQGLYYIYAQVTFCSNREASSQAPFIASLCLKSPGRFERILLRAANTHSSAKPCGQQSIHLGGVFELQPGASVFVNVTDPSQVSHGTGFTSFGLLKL
Experimental: To this end, the present inventors first attached CD154 protein to 96-well plates using Dip and Read™ Amine Reactive 2nd Generation (AR2G) Reagent Kit (forteBio, Cat No. 18-5092). Specifically, after dispensing 200 μl of DW in a 96-well plate, an amine biosensor included in the kit was inserted and hydrated for 10 minutes. Subsequently, after dispensing 200 μl of DW was additionally to the plate, EDC:NHS was mixed in a 1:1 ratio in a volume corresponding to 1/20 of the required sample, then diluted in DW, and 200 μl was dispensed into the 96-well plate. Subsequently, CD154 protein was diluted to 5 μg/ml in 10 mM acetate solution (pH 6.0), and 200 μl was dispensed into the 96-well plate. Then, 200 μl of 1 M ethanolamine was added to the 96-well plate, and the biosensor plate and the sample plate were inserted into Octet® K2 BLI analyzer and signals were measured. After the measurement was completed, 200 μl of the 1× Kinetics buffer was added to the sample plate, and then a baseline was determined.

Fc gamma receptor IIIa = molecular target: T2, Fc gamma receptor IIIa (UniProt P08637 17-208); assay: BLI, fitting view, three repeats
T2 construct: also called FcγRIIIa
T2 sequence (P08637 17-208 limits assumed): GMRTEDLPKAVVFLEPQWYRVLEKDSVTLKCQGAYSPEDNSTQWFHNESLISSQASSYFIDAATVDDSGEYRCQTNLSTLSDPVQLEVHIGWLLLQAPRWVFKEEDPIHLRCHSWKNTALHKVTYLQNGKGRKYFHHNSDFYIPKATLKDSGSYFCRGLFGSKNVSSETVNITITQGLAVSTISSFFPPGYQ

Fc gamma receptor I = molecular target: T3, Fc gamma receptor I (UniProt P12314 16-288, limits assumed); assay: BLI, fitting view, three repeats
T3 construct: also called FcγRI
T3 sequence (P12314 16-288 limits assumed): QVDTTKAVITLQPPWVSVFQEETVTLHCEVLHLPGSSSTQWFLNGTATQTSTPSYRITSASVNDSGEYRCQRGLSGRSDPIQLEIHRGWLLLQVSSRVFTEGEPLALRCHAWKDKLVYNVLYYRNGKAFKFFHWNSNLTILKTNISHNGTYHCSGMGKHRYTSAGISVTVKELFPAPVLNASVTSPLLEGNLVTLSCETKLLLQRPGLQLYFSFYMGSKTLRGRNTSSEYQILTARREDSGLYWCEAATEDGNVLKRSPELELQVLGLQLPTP

koff (human CD154): < 1e-07 s⁻¹
kon (human CD154): 510000 M⁻¹ s⁻¹
B1: chimeric anti-CD154 antibody C10M (antibody, V domains shown, not shown: a dimerising Fc or GST)
VH: EVQLQQSGSELVKPGASVKLSCKASGYIFTSYYMYWVKQRPGQGLEWIGEINPSNGDTNFNEKFKSKATLTVDKSSSTAYMQLISLTSEDSAVYYCTRSDGRNDMDSWGQGTTVTVSS
VL: DIQLTQSPASLAVSLGQRATISCRASQRVSSSTYSYMHWYQQKPGQPPKLLIKYASNLESGVPARFSGSGSGTDFTLNIHPVEEEDSATYYCQHSWEIPPTFGGGTKLEIKR
notes: Mouse-derived anti-CD154 Fab with a mutant human IgG1 Fc region; also called anti-CD154 chimeric antibody

koff (human CD154): < 1e-07 s⁻¹
kon (human CD154): 807000 M⁻¹ s⁻¹
B2: chimeric hybrid antibody PG-400-1 (antibody, V domains shown)
VH: B1 VH
VL: B1 VL

binding result (Fc gamma receptor IIIa): no binding
binding result (Fc gamma receptor I): no binding
B3: GLP-1E-Fc fusion protein PG-11 (Fc fusion)
chain: HGEGTFTSDVSSYLEGQAAKEFIAWLVKGGPSSGAPPPSGGGGSGGGGSGGGGSEKEKEEQEERTHTCPPCPSHTQPLGVFLFPPKPKDQLMISRTPEVTCVVVDVSQEDPEVQFNWYVDGVEVHNAKTKPREEQFNSTYRVVSVLTVLHQDWLNGKEYKCKVSNKGLPSSIEKTISKAKGQPREPQVYTLPPSQEEMTKNQVSLTCLVKGFYPSDIAVEWESNGQPENNYKTTPPVLDSDGSFFLYSRLTVDKSRWQEGNVFSCSVLHEALHNHYTQKSLSLSLGK
notes: 6 entered; also called modified Fc region protein; fusion protein containing NTIG
